Like-named read-outs stand apart in the source and are kept apart here.

Assay [1] deals with human PVRIG expressed on the cell surface (human) (UniProt Q6DKI7). Put plainly: cell-based or functional assay.
The target in assay [2] is T1, human PVRIG expressed on the cell surface (human, UniProt Q6DKI7 41-326).
T1 sequence (looked up): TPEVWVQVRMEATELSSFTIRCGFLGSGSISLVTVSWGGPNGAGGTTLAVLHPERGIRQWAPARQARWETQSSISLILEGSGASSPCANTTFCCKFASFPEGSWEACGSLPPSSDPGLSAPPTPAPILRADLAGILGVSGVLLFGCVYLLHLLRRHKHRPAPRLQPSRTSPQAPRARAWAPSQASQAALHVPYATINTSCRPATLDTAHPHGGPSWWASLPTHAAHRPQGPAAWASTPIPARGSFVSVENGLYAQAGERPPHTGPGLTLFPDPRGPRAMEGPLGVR
The experiment in a line: cell-based or functional assay.

In assay [3] the target is T1, human PVRIG expressed on the cell …. Put plainly: cell-based or functional assay. The source holds these as a separate data set.
Assay [4] has the same target. The experiment in a line: cell-based or functional assay. This is another data set of the same source.
The target is the same in assay [5]. The experiment in a line: cell-based or functional assay. The source holds these as a separate data set.
Assay [6] has the same target. Put plainly: cell-based or functional assay. This is another data set of the same source.
Assay [7] addresses T2, his-tagged cynomolgus monkey PVRIG recombinant protein (cynomolgus monkey).
T2 construct: expressed in HEK293, purified by Ni-NTA; also called cyno-PVRIG-his; Cynomolgus monkey PVRIG-his
T2 chain: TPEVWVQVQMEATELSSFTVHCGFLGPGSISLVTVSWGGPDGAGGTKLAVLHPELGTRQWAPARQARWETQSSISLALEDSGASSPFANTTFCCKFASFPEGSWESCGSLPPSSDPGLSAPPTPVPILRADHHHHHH
Put plainly: ELISA, plate coated with cynomolgus monkey PVRIG recombinant protein, HRP anti-human IgG, OD450 (method of Example 4). Here is the method: Human, cynomolgus monkey or mouse PVRIG protein (at a concentration of 1 μg/mL) was coated on a 96-well microplate at 100 μL per well, and incubated overnight at 4° C. The plate was washed three times with a washing solution at 250 μL per well. For each wash, the plate was shaken for 10 s to ensure adequate cleaning. A blocking solution (PBS+0.05% Tween20+1% BSA) was added at 300 μL per well and the plate was incubated at room temperature for 1 h. The plate was washed three times with a washing solution at 250 μL per well. For each wash, the plate was shaken for 10 s to ensure adequate cleaning. The test anti-PVRIG antibody diluted in diluent was added at 100 μL per well. The mixture was incubated at 37° C. for 1 h. The plate was washed three times with a washing solution at 250 μL per well. HRP-labeled anti-human IgG secondary antibody (Sigma, A8667) was added at 100 μL per well. The mixture was incubated at 37° C. for 1 h. The plate was washed three times with a washing solution at 250 μL per well. […] The OD values at 450 nm were read by using a Thermo MultiSkanFc microplate reader, and the EC₅₀ values of the binding of the anti-PVRIG antibodies to PVRIG were calculated.
(§1) Binding of the humanized anti-PVRIG/TIGIT bispecific antibodies to human and cynomolgus monkey PVRIG and their blocking of the ligand of human PVRIG were detected according to the methods of Examples 4, 5 and 6.

Assay [8] concerns the target T3, cynomolgus monkey PVRIG expressed on the cell surface (cynomolgus monkey, UniProt A0A2K5WVV8 1-322).
T3 construct: whole, on cells; also called cells overexpressing cynomolgus monkey PVRIG; Monkey PVRIG FACS
T3 sequence: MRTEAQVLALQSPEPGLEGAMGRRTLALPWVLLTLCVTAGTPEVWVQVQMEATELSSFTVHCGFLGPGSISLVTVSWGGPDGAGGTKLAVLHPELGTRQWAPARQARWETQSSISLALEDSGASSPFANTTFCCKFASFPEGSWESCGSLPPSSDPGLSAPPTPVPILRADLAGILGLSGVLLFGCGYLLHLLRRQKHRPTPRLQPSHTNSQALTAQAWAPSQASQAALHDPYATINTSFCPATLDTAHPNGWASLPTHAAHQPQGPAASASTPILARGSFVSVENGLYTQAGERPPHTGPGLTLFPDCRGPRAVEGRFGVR
Put plainly: flow cytometry on cells overexpressing cynomolgus monkey PVRIG, labelled anti-human IgG (method of Example 5). Here is the method:
The expression plasmid carries human or cynomolgus monkey PVRIG gene sequence was transfected into HEK293 cells, and the over-expressing stable transfection monoclonal cell strain was obtained by antibiotic screening and infinite dilution. Overexpressing cells were seeded into a 96-well plate at 2×10⁵ cells/per well. The cells were centrifuged at 300 g for 5 min, the supernatant was then removed, 100 μL of the test antibody was added, and the mixture was incubated at 4° C. for 1 h. The mixture was centrifuged, the supernatant was removed, the plate was washed 3 times with 200 μL of a washing solution (PBS+2% FBS), and then 100 μL of an anti-human IgG secondary antibody (Invitrogen, A-11013) labeled with Alexa Fluor 488 diluted at 1:500 was added. The mixture was incubated at 4° C. for 1 h. The mixture was centrifuged, the supernatant was removed, and the plate was washed 3 times with 200 μL of a washing solution (PBS+2% FBS). Cells were resuspended in 100 μL of PBS and detected by a flow cytometer (BD FACS Calibur or BD FACS Canto_II).
as §1

Regarding IgG4 control antibody, in assay [1], the IFNγ (pg/mL) in mixed lymphocyte reaction, 20 nM antibody (control) was found to be 74 pg/mL; the IFNγ (pg/mL) in mixed lymphocyte reaction, 100 nM antibody (control) was 89 pg/mL; the Killing activity (%) of NK92 on K562, 4 nM antibody (control) came out at 11.2%; the Killing activity (%) of NK92 on K562, 20 nM antibody (control) was determined as 11.7%. The Killing activity (%) of NK92 on K562, 100 nM antibody (control) in assay [1] amounted to 9.2%.

B1: positive antibody Tab5 (antibody, human IgG4 S228P, kappa, F234A L235A, V domains shown)
VH: EVQLVESGGGVVKPGGSLRLSCAASGFTFGTSSMNWVRQAPGKGLEWVAVISFDGTEIHYADSVKGRFTISRDNSKSTVFLQMNSLRPDDTALYYCAKGSGNIYFYSGMDVWGQGTTVTVSS
VL: DIQMTQSPSTLSASVGDRVTITCRAGQSISGWLAWFQQKPGKAPNLLIYETSTLESGVPSRFSGSGSGTEYTLTISSLQPDDFATYYCQQYYSYPLTFGQGTKVEIKR
As for B1, in assay [2], the “IFNγ (pg/mL) in mixed lymphocyte reaction, 4 nM antibody” value came to 912 pg/mL; the “IFNγ (pg/mL) in mixed lymphocyte reaction, 20 nM antibody” value came to 1420 pg/mL; the “IFNγ (pg/mL) in mixed lymphocyte reaction, 100 nM antibody” value was 2350 pg/mL. Further, in assay [3], the “Killing activity (%) of NK92 on K562, 20 nM antibody” value came to 32% and the “Killing activity (%) of NK92 on K562, 100 nM antibody” value was determined as 32%. Moreover, in assay [4], the “Killing activity (%) of NK92 on K562, 4 nM antibody” value came to 5.9%; the “Killing activity (%) of NK92 on K562, 20 nM antibody” value came to 7.9%; the “Killing activity (%) of NK92 on K562, 100 nM antibody” value stood at 10%. Further, the “Experiment on activity in PVRIG reporter cells EC50” value in assay [5] is 0.74 nM. Moreover, the “Experiment on activity in PVRIG reporter cells EC50” value in assay [6] amounted to 1.38 nM.

B2: anti-TIGIT antibody 1708 (antibody, human IgG4 S228P, kappa, V domains shown)
VH: EVQLVQSGAEVKKPGASVKVSCKASGYTFTNYWMHWVRQAPGQGLEWMGRIDPDSTGSKYNEKFKTRVTMTRDTSTSTVYMELSSLRSEDTAVYYCAREGAYGYYFDYWGQGTLVTVSS
VL: DIQMTQSPSSLSASVGDRVTITCRASENIYSYLAWYQQKPGKSPKLLIYNARTLAEGVPSRFSGSGSGTDFTLTISSLQPEDFATYYCQYHSGSPLPFGGGTKVEIKR
notes: human IgG4 subtype with S228P; kappa light chain
With B2, the binding result in assay [7] is on record as “no binding (tested: about 20 nM)”; in assay [8], “no binding (tested: about 200 nM)”.

The values are drawn from patent US20240043530A1 (JIANGSU HENGRUI PHARMACEUTICALS, published 2024).
